Test results as given in US20240124602A1.

Molecular target: canine CD20 (canine) (UniProt Q3C2E2)
Assay: flow cytometry on canine PBMCs without 18F6 (control), FSC-H/SSC-H subset, Event Count 9100; FL1-H = 2o FITC alone, FL2-H = CD21-PE

Chain of UniProt Q3C2E2 (Q3C2E2 whole entry): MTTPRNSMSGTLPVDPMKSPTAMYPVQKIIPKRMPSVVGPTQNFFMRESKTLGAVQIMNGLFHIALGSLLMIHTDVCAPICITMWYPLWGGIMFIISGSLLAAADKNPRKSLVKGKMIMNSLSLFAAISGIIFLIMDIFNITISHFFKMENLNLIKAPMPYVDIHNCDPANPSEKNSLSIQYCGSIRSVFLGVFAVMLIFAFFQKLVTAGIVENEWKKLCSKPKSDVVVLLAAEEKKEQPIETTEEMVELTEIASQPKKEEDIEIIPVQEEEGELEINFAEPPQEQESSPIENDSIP

Q: How did the quadrant number, lower left (FL1-H low, FL2-H low); unit not given turn out when 2o FITC (antibody) was run?
A: 72.5

Q: What about the quadrant number, lower right (FL1-H low, FL2-H high); unit not given of the same substance?
A: 22.9

Q: What about the quadrant number, upper left (FL1-H high, FL2-H low); unit not given of the same substance?
A: 2.18

Q: What about the quadrant number, upper right (FL1-H high, FL2-H high); unit not given of the same substance?
A: 2.37
